B3: human vitronectin (natural protein)
chain: DQESCKGRCTEGFNVDKKCQCDELCSYYQSCCTDYTAECKPQVTRGDVFTMPEDEYTVYDDGEEKNNATVHEQVGGPSLTSDLQAQSKGNPEQTPVLKPEEEAPAPEVGASKPEGIDSRPETLHPGRPQPPAEEELCSGKPFDAFTDLKNGSLFAFRGQYCYELDEKAVRPGYPKLIRDVWGIEGPIDAAFTRINCQGKTYLFKGSQYWRFEDGVLDPDYPRNISDGFDGIPDNVDAALALPAHSYSGRERVYFFKGKQYWEYQFQHQPSQEECEGSSLSAVFEHFAMMQRDSWEDIFELLFWGRTSAGTRQPQFISRDWHGVPGQVDAAMAGRIYISGMAPRPSLAKKQRFRHRNRKGYRSQRGHSRGRNQNSRRPSRATWLSLFSSEESNLGANNYDDYRMDWLVPATCEPIQSVFFFSGDKYYRVNLRTRRVDTVDPPYPRSIAQYWLGCPAPGHL
modifications: biotin (NHS-biotin) in the cell-binding assays of Figure 1; sulfo-SDAD on amino groups in the cross-linking
notes: Vitronectin, human; also called VTR; VTR-Bt; source: bought: R&D Systems

The assay “human vitronectin” has as its target B3. The assay is described as follows: SPR; BIACORE 3000; enolase amine-coupled to a CM5 chip (about 300 RU); human protein as analyte (40-750 nM or 75-750 nM), 30 µL/min, 25 °C, 10 mM HEPES, 150 mM NaCl, 0.005% P20, pH 7.4; 1:1 Langmuir global fit with baseline drift and local Rmax; regeneration 1 M NaCl. As to conditions: both partners purified.
In assay [1] the target is T1, C. albicans cell surface-exposed enolase (C. albicans, UniProt P30575 1-440, biotin (biotin-labeled enolase) in the microplate ligand-binding assay).
T1 construct: Enolase of Candida albicans (strain ATCC 10231), form exposed at the cell surface; identified by LC-MS/MS, non-glycosylated, 47 kDa; Same protein as m2, isolated from another compartment; also called C. albicans enolase, cell wall; cell wall-associated enolase
The description is as above. As to conditions: both partners purified.

B1: C. albicans cytosolic enolase (enzyme, UniProt P30575 1-440, looked up)
chain: MSYATKIHARYVYDSRGNPTVEVDFTTDKGLFRSIVPSGASTGVHEALELRDGDKSKWLGKGVLKAVANVNDIIAPALIKAKIDVVDQAKIDEFLLSLDGTPNKSKLGANAILGVSLAAANAAAAAQGIPLYKHIANISNAKKGKFVLPVPFQNVLNGGSHAGGALAFQEFMIAPTGVSTFSEALRIGSEVYHNLKSLTKKKYGQSAGNVGDEGGVAPDIKTPKEALDLIMDAIDKAGYKGKVGIAMDVASSEFYKDGKYDLDFKNPESDPSKWLSGPQLADLYEQLISEYPIVSIEDPFAEDDWDAWVHFFERVGDKIQIVGDDLTVTNPTRIKTAIEKKAANALLLKVNQIGTLTESIQAANDSYAAGWGVMVSHRSGETEDTFIADLSVGLRSGQIKTGAPARSERLAKLNQILRIEEELGSEAIYAGKDFQKASQL
modifications: biotin (biotin-labeled enolase) in the microplate assays
notes: Enolase of Candida albicans (strain ATCC 10231), cytosolic form; identified by LC-MS/MS; also called C. albicans enolase, cytosol; source: purified from C. albicans ATCC 10231 cytosol (ammonium sulphate fractionation, MonoQ, MonoS)
As to B1, in the assay with human vitronectin, the affinity, expressed as Kd, was 55.3 nM; the koff worked out at 0.00493 s⁻¹; the kon worked out at 89100 M⁻¹ s⁻¹.

B2: C. tropicalis cytosolic enolase (enzyme, UniProt C5MD83 1-440, looked up)
chain: MSYATKIHARTVYDSRGNPTVEVELTTDNGMFRSIVPSGASTGIHEALELRDGDKSKWLGKGVLKAVSNVNDIIAPALIDAKIDVNDQSKIDEFMIKLDGTPNKSKLGANAILGVSLAAANAAAANQGIPLYQHIANLSKSKKDKYVLPVPFQNVLNGGAHAGGDLAFQEFMIVPTGAESFSEAMRIDSEVYHTLKSLAKKKYGQSAGNVGDEGGVAPDLRTPEEALDLIVESIEQAGHTGKVKIAMDPASSEFFKDGKYDLDFKNPNPDPAKRLSGKELAELYERLINKYPIVLLEDPFAEDDWDAWVHFFKIVGDKVQIVADDLTVTNPIRIKKAIEKKCANALLVKVNQIGTLSESIVAANDAFGAGWGVMVSHRSGETEDTFIADLVVGLRAGQIKTGAPARSERLAKLNQILRIEESLGDDAIYAGKNFAVAHQL
modifications: biotin (biotin-labeled enolase) in the microplate assays
notes: Enolase of Candida tropicalis (strain T1, ATCC MYA-3404), cytosolic form; identified by LC-MS/MS; also called C. tropicalis enolase, cytosol; source: purified from C. tropicalis T1 (ATCC MYA-3404) cytosol (ammonium sulphate fractionation, MonoQ, MonoS)
In the assay with human vitronectin, B2 had a Kd of 683 nM, a koff of 0.00915 s⁻¹ and a kon of 13400 M⁻¹ s⁻¹.
With B3, in assay [1], binding was put at a Kd of 31.1 nM, the koff is 0.00417 s⁻¹ and the kon is 134000 M⁻¹ s⁻¹.

The record behind these values is paper PMC7660097, “Structural Insights into the Interactions of Candidal Enolase with Human Vitronectin, Fibronectin and Plasminogen” (International Journal of Molecular Sciences, 2020).
